# Measurements taken from the supplement of paper PMC10567573.
# ± gives the standard deviation.
# Experiment: protein stability index of a GFP-peptide fusion (GPS, HEK-293T) (PSI 1-6); higher = more stable
# [1] = treatment: DMSO, c terminus: a fixed tail appended
# [2] = treatment: MLN4924 1 uM, 8 h, c terminus: a fixed tail appended
# 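Also: 24-mer peptide tiles fused after GFP, lentivirally expressed, FACS-sorted into six equal bins by GFP/DsRed ratio, decoded by Illumina sequencing, PSI is the read-weighted mean bin number.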
Sequence,protein stability index [1],protein stability index [2],"protein stability index (treatment: DMSO, c terminus: native)","protein stability index (treatment: MLN4924 1 uM, 8 h, c terminus: native)"
AAARIRAQVPDTRWSRVGGQRFYS,2.713 ± 0.004,3 ± 0.61,–,–
AACSSKRSPIIDVKNDRDRVGHKS [SERPINB5],4.85 ± 0.35,4.77 ± 0.11,–,–
AAENEFVLLKKDVDAAYANKVELQ [KRT71],4.7 ± 0.21,4.54 ± 0.39,–,–
AAVSRKKKRRMGTYSLVPKKKTKV [EHMT1],4.29 ± 0.32,4.32 ± 0.24,–,–
ACGLSDVAHVESLQEKSQCALEEY [NR2F2],4.58 ± 0.28,4.67 ± 0.3,–,–
ADFSSMLSEEEKEELKAELVQLED [TPD52L1],5.47 ± 0.32,5.3 ± 0.37,–,–
ADRLVRVHGDPAVWWVSQFVKYLI [FUT8],2.25 ± 0.35,2.11 ± 0.26,–,–
ADRQCQLTFGPDSRHCPQLPPPCA [ADAMTS4],4.08 ± 0.16,4.08 ± 0.081,–,–
ADVNAQSSTGNTALTYACAGGYVD [ANKRD17],4.21 ± 0.39,4.49 ± 0.16,–,–
AEERRRQNLQEEKERKLECLPPEP [FAF2],5.71 ± 0.18,5.51 ± 0.42,–,–
AEGAVPETQTLTGWSKGFIGMHRE [RHOBTB1],4.09 ± 0.12,4 ± 0.23,–,–
AEIATASASASTTTTVTAVTAEVD [SNAP91],5.62 ± 0.23,5.47 ± 0.39,–,–
AELAGVIKRLWKDSGVQACFNRSR [GNAI1],2.62 ± 0.23,2.42 ± 0.72,–,–
AESWCYTQVKVVKFSYMWTINNFS [SPOPL],3.24 ± 0.56,3.01 ± 0.5,–,–
AFSYSSSSRFSSSRLLGSASPSSS [PRPH],3.04 ± 0.21,3.09 ± 0.051,–,–
AGDAEVCPTPARLATTEKKTEQQR [NOP53],5.37 ± 0.23,5.44 ± 0.16,–,–
AGLNKDKETEERTDGERVAEVAPE [SDE2],5.46 ± 0.33,5.63 ± 0.16,–,–
AGQVTALPVNSPMNKGDTEVMKCI [CHGA],4.12 ± 0.34,4.57 ± 0.22,–,–
AGSTAGAAETRGAVEGAARTTPSR [PALM],5.11 ± 0.36,5.14 ± 0.27,–,–
AHWQCGATLTQVSVEYGYRPGATA [FCHO1],2.29 ± 0.18,2.24 ± 0.49,–,–
AILLDAHHKTYDPTYSDFCQFRPP [VDR],2.31 ± 0.2,2.34 ± 0.29,–,–
AIMLLPDENREVLQTLLYFLSDVT [DLC1],2.12 ± 0.23,2.19 ± 0.13,–,–

Sequence,protein stability index [1],protein stability index [2],"protein stability index (treatment: DMSO, c terminus: native)","protein stability index (treatment: MLN4924 1 uM, 8 h, c terminus: native)"
AIVFTDGRAQDDVSEWASKAKANG [MATN2],3.92 ± 0.29,4.26 ± 0.34,–,–
AKDMKKAVAHMKYMGKGSMTGLAL [MATN2],–,2.37 ± 0.3,–,–
AKFWPRRRFNFFVLENNLEAVARH [DNAAF3],2.13 ± 0.33,2.09 ± 0.19,–,–
AKGDNVYEFHLEFLDLVKPEPVYK [HACD3],2.41 ± 0.09,2.54 ± 0.49,–,–
AKILPSPVQGSSEDNLSLVCLPRS [DRICH1],3.94 ± 0.18,4.04 ± 0.18,–,–
ALCQGLYFHINQTLREAHFHSLQH [FAM104A],2.81 ± 0.54,2.8 ± 0.51,–,–
ALGDAFADLSQKSPELQEEFGYNA [ARFIP2],4.6 ± 0.17,4.63 ± 0.22,–,–
ALHCPTGTEYTCKVYPVQEALAVL [TRIB3],2.27 ± 0.39,2.28 ± 0.32,–,–
ALKERADSLAKEIQYLKDLIEEVR [ATF4],4.49 ± 0.36,4.59 ± 0.057,–,–
ALQNYNNELVKCIEELCQKREELC [SSNA1],2.94 ± 0.18,2.94 ± 0.33,–,–
ALSPKTTITMAHLLAAREDLSKII [FAM98B],2.29 ± 0.27,2.55 ± 0.065,–,–
ALTNIQNCMAEKRETVLIETQLKA [C8orf76],3.19 ± 0.34,3.09 ± 0.47,–,–
ALVIMWQKHYVYGPLPQSFDKEWV [COX4I1],2.88 ± 0.33,2.92 ± 0.39,–,–
ALWCAAGAGHFEVVKLLVSHGANV [FEM1B],2.51 ± 1.3,2.37 ± 0.26,–,–
AMCVRYDGVEVDDSYCDALTRPEP [ADAMTSL2],4.37 ± 0.33,4.31 ± 0.28,–,–
AMRAGVLADDHLIEVNGENVEDAS [PDZK1],5.41 ± 0.23,5.3 ± 0.11,–,–
ANGEIQRHAEQQALRLEVRAGPDS [CARM1],4.56 ± 0.67,4.74 ± 0.19,–,–
APAASEGAAAPATPTPVAAALDAC [SNAP91],5.32 ± 0.23,5.18 ± 0.31,–,–
APGADVKVHRARKTMPKSVVGLHA [EHMT1],3.7 ± 0.18,3.91 ± 0.41,–,–
APQHPAASALRTRMTGGRPPLPPP [DYRK1B],4.38 ± 0.15,4.41 ± 0.23,–,–
APSATIHQGEEEGPLDIWAVVKPG [FBXO34],4.71 ± 0.27,4.79 ± 0.13,–,–
AQAQALAAQAAAAAHAAQAHRERN [PI4K2A],4.9 ± 0.076,4.8 ± 0.12,–,–

Sequence,protein stability index [1],protein stability index [2],"protein stability index (treatment: DMSO, c terminus: native)","protein stability index (treatment: MLN4924 1 uM, 8 h, c terminus: native)"
AQGFAADVRLMFSNCYKYNPPDHE [BRD3],2.99 ± 0.31,2.8 ± 0.39,–,–
AQNAVRLHYGLPVVVKLLHPPSHW [CTNNB1],2.32 ± 0.23,2.23 ± 0.048,–,–
AREGRETLKCLSHHVADAYTSSQK [TOR1AIP2],4.48 ± 0.35,4.44 ± 0.37,–,–
AREYYSEADASHCIQQILEAVLHC [CAMK2A],2.48 ± 0.26,2.55 ± 0.24,–,–
ARFAEKEELMLVHSLEYIDLMETT [HDAC6],2.66 ± 0.17,2.75 ± 0.38,–,–
ARRQWRDECLMRLAKLKSQVQPQ [CRYL1],–,–,2.9 ± 0.77,3.33 ± 0.73
ASDGSDFTFLRPLSVQQPTALALE [PCDHGC5],3.82 ± 0.17,3.82 ± 0.32,–,–
ASIPEHLAYGSVITVKNLRMAIGY [POMT2],2.41 ± 0.29,2.43 ± 0.33,–,–
ASKLKETSPLTAEKLCIYTDNSIK [CCND2],4 ± 0.18,4.05 ± 0.092,–,–
ASLGREESRAPSPLLHKDSASLEV [CBY2],4.79 ± 0.31,4.85 ± 0.19,–,–
ASSVHLKSESSLPHQTSKMENLPG,4.8 ± 0.26,4.85 ± 0.49,–,–
ASVAMICAIASGSELSESAFGYFI [SLC29A1],2.94 ± 0.68,2.48 ± 0.52,–,–
ATCRLCGEQVGRGPGFHAGTSALW [ZBED3],2.2 ± 0.57,2.39 ± 0.12,–,–
ATGDTALTYACENGHTDVADVLLQ [ANKRD17],4.41 ± 0.21,4.56 ± 0.08,–,–
ATGKHYGASSCDGCKGFFRRSVRK [HNF4A],3.35 ± 0.19,3.73 ± 0.21,–,–
ATQMMVDIDGDVLVFLELAQFHCA [RHOBTB2],3.08 ± 0.33,2.89 ± 0.75,–,–
AVGSGERRGGGPVFPAPVVGSGGA [ZBTB22],4.39 ± 0.19,4.45 ± 0.38,–,–
AVPKRLLEIVGREGVSLTAVLTTH [HAGHL],2.5 ± 0.39,2.2 ± 0.6,–,–
AYISLVEEEDQHMKLSLGGSEMGL [KLHL13],2.98 ± 0.38,3.06 ± 0.52,–,–
CAACKTPIRNRAFYMEEGVPYCER [PDLIM7],2.93 ± 0.3,3.38 ± 0.18,–,–
CARMLYNYGADTNTRNYEGQTPLA [ASB7],2.63 ± 0.28,2.62 ± 0.36,–,–
